# Test results taken from US20190211082A1.
# Columns and labels:
# [1] = molecular target: humanized monoclonal IgG (anti-IgE monoclonal antibody, "Xolair" manufactured by Novartis AG; generic name Omalizumab); test: affinity chromatography, 1 mg IgG on 1 mL column, linear pH gradient 5.0 to 3.0 in 100 mM acetate buffer, pH at elution position
# [2] = molecular target: humanized monoclonal IgG (anti-IgE monoclonal antibody, "Xolair" manufactured by Novartis AG; generic name Omalizumab); test: affinity chromatography, 1 mg IgG on 1 mL column, linear pH gradient 5.0 to 2.4 in 100 mM citrate buffer, pH at elution position
# [3] = molecular target: Fab fragment (IgG-Fab) derived from anti-IgE monoclonal antibody Omalizumab ("Xolair" manufactured by Novartis AG), made by papain digestion; test: affinity chromatography, 1 mg Fab on 1 mL column, linear pH gradient 5.0 to 3.0 in 100 mM acetate buffer, pH at elution peak top, 25 °C
# [4] = molecular target: Fab fragment (IgG-Fab) derived from anti-IgE monoclonal antibody Omalizumab ("Xolair" manufactured by Novartis AG), made by papain digestion; test: affinity chromatography, 1 mg Fab on 1 mL column, linear pH gradient 5.0 to 2.4 in 100 mM citrate buffer, pH at elution peak top, 25 °C
Antibody elution pH (100 mM acetate buffer) [1],Antibody elution pH (100 mM citrate buffer) [2],Antibody elution pH (100 mM acetate buffer) [3],Antibody elution pH (100 mM citrate buffer) [4],Substance
3.64 pH,3.53 pH,–,–,"Protein A ligand of the commercially available Protein A carrier ""HiTrap MabSelect SuRe"" manufactured by GE Healthcare"
–,–,3.6 pH,2.93 pH,"Protein L ligand of the commercially available affinity separation matrix ""HiTrap Protein L 1 mL-gel"" manufactured by GE Healthcare"
–,–,3.47 pH,2.71 pH,"VL-κ-binding peptide of Experimental product A: 4 VL-κ-binding domains (SEQ ID NO: 2) of wild Protein L of Peptostreptococcus magnus 312 strain bound through the peptides that connect domains in SEQ ID NO: 1, with an active group for immobilization at the C-terminal (designed binder)"
